Assay results published in patent US20200317755A1.
Read-outs that look alike come from different tables or passages of the source.

Legend:
[1] = target: T1, panel of four distinct ZIKV strains (H/PF/2013; MR766, MRS-OPY and PV 10552); assay: cell-based or functional assay
[2] = target: T1, panel of four distinct ZIKV strains …; assay: cell-based or functional assay; remark: listed apart in the source

B1: ZKA190 (antibody, V domains shown)
VH: QVQLVESGGGVVQPGRSLRLSCAASGFTFSKYGMHWVRQAPGKGLEWVAVISYEGSNKYYADSVKGRFTISRDNSKNTLYLQMNSLRAEDTAVYYCAKSGTQYYDTTGYEYRGLEYFGYWGQGTLVTVSS
VL: EIVLTQSPGTLSLSPGERATLSCRASQSVSSSYLAWYQQKRGQAPRLLIYDASSRATGIPDRFSGSGSGTDFTLTISRLEPEDFAVYYCQQYGRSRWTFGQGTKVEIK
IC50, neutralization of four ZIKV strains on Vero cells (flow cytometry) [1]: 0.6 to 8 ng/mL | IC50, neutralization of four ZIKV strains on Vero cells (flow cytometry) [2]: 0.004 to 0.05 nM
